Consider 1 molecule from patent US20210238276A1 (INTEGRAL MOLECULAR, published 2021).

Assay [1] addresses T1, mouse GLUT1 (mmGLUT1) (mouse, UniProt P17809 1-492).
T1 construct: whole, on cells
T1 sequence (looked up): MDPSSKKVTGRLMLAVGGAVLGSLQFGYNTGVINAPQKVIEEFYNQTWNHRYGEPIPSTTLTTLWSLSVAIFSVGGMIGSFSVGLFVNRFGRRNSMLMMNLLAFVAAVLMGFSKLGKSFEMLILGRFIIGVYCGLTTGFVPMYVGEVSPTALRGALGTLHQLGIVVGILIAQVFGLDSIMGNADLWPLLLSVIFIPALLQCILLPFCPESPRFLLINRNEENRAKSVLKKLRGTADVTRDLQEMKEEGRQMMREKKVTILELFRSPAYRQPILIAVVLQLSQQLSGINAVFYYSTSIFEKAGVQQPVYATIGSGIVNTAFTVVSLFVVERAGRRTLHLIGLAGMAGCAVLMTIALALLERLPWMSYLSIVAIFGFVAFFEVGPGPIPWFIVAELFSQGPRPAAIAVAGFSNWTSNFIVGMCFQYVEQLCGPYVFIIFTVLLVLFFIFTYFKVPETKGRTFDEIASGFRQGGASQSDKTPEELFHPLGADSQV
Briefly: flow cytometry, permeabilized transfected HEK-293T. On the procedure: (§1) HEK-293T cells were transfected by CaPO₄ with plasmids in 6-well culture plates (Falcon) at 750,000 cells/well. At 48 hours post transfection, cells were stained with anti-V5 and anti-GLUT4 MAbs (purified scFv, 2 μg/ml) followed by biotinylated goat anti-mouse or human antibody (1:500) and streptavidin-PerCP (1:500). Fluorescence was detected using an Intellicyt high-throughput flow cytometer (HTFC; Intellicyt, Albuquerque, N. Mex.). For cell permeabilization, cells were treated with saponin at 0.1% in PBS for 20 minutes. To discriminate intact (live) and permeabilized (dead) cells without the use of detergent, propidium iodide (PI) was added to HEK-293T cells at 1 ug/ml just prior to flow cytometry. Where indicated, cytochalasin B (Sigma) was used at a final concentration of 10 uM and phloretin (Sigma) was used at a final concentration of 100 uM, each added in 10% NGS for 30 minutes prior to antibody staining as well as included with the primary antibody.
(A flow cytometer gives signals particle by particle.)

In assay [2] the target is T2, human GLUT1 (hsGLUT1) (human, UniProt P11166 1-492).
T2 construct: whole, on cells
T2 sequence (looked up): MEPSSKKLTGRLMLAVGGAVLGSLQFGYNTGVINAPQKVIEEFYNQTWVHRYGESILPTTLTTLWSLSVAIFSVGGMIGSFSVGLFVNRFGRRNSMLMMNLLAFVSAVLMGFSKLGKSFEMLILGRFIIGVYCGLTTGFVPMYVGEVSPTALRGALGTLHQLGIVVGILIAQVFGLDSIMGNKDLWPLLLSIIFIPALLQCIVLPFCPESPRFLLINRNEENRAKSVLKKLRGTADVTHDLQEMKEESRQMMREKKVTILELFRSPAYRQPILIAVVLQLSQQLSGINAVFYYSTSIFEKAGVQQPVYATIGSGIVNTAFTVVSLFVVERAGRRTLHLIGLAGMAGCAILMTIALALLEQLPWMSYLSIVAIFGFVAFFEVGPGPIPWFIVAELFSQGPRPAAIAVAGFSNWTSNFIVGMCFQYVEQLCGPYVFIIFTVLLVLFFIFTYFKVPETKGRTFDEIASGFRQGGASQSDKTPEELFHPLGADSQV
As to the kind of experiment: flow cytometry, permeabilized transfected HEK-293T. On the procedure:
as §1

B1: AB102 (Fc fusion)
scFv: ALTQPSSVSANLGGTVKITCSGGGSYGYGWYQQKSPGSAPVTVIYSNDQRPSDIPSRFSGSKSGSTATLTITGVRAEDEAIYYCGSTDSDYVGIFGAGTTLTVLGQSSRSSGGGGSSGGGGSAVTLDESGGGLQTPGGTLSLVCKASGFDFSSYATIWVRQAPGKGLEWVAGISGTGTGSSTGYAPAVKGRATISRDNGQSTVRLQLNNLRAEDTGSYFCAKSTGYGDSWIYPDSIDAWGHGTEVIVSS
notes: also called MAb AB102; not shown: Fc fragment of human IgG1, cloned in frame with the scFv
With B1, the binding result in assay [1] and in assay [2] was “binds” each time.
